From patent US20260256936A1, “BIOACTIVE CONJUGATES, PREPARATION METHOD AND USE THEREOF” (priority 2023, published 2026)
Read-outs that look alike come from different tables or passages of the source.

How the values were obtained:
Assay in all cases: cell-based or functional assay
[1] = target: T1, CLL1 on CLL1-expressing cells (U937, HL60) (human, UniProt Q5QGZ9 1-265)
T1 sequence (looked up): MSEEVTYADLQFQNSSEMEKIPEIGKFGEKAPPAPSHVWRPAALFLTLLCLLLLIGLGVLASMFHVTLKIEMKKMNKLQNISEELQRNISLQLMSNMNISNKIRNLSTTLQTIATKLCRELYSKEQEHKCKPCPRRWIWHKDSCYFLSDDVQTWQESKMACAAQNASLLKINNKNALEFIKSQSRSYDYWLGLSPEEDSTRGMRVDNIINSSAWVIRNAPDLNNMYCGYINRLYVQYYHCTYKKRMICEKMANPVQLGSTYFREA

[2] = target: T1, CLL1 on CLL1-expressing cells (U937, …); remark: listed apart in the source
[3] = target: T1, CLL1 on CLL1-expressing cells (U937, …); remark: listed apart in the source
[4] = target: T1, CLL1 on CLL1-expressing cells (U937, …); remark: listed apart in the source
[5] = target: T2, B7H3 on B7H3-expressing cells (NCI-H358, NCI-H1048) (human, UniProt Q5ZPR3 29-534)
T2 sequence (looked up): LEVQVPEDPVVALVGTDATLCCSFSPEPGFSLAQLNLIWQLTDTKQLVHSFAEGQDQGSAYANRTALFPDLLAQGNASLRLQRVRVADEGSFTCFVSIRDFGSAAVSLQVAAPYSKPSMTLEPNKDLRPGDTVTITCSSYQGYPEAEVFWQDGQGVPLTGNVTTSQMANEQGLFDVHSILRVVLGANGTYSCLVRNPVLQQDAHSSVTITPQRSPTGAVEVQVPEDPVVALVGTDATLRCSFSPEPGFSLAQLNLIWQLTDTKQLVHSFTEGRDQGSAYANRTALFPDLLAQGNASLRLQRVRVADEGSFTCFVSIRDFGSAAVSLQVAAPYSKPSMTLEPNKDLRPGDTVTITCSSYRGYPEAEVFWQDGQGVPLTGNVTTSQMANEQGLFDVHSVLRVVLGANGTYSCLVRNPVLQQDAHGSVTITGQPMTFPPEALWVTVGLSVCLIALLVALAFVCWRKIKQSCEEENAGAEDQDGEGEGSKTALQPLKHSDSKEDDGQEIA

B1: ADC3-2 (antibody, human IgG1, kappa, V domains shown)
VH: EVQLVQSGAEVKKPGASVKVSCKASGYSFTDYYMHWVRQAPGQGLEWIGRINPYAGAAFYSQNFKDRVTLTVDTSTSTAYLELSSLRSEDTAVYYCAIERGADLEGYAMDYWGQGTLVTVSS
VL: DIQMTQSPSSLSASVGDRVTITCRASQSVSTSSYNYMHWYQQKPGKPPKLLIKYASNLESGVPSRFSGSGSGTDFTLTISSLQPEDFATYYCQHSWEIPLTFGQGTKVEIKR
modifications: conjugator-linker-payload on cysteine thiols after TCEP reduction; positions not given
- EC50 (nM) direct cellular killing, HL60 [1]: 8.2 nM
- EC50 (nM) direct cellular killing, U937 [1]: 0.2 nM
- Emax (%) direct cellular killing, HL60 [1]: 55.9%

B2: ADC3-3 (antibody, human IgG1, kappa, V domains shown)
VH: EVQLVQSGAEVKKPGASVKVSCKASGYSFTDYYMHWVRQAPGQGLEWIGRINPYAGAAFYSQNFKDRVTLTVDTSTSTAYLELSSLRSEDTAVYYCAIERGADLEGYAMDYWGQGTLVTVSS
VL: DIQMTQSPSSLSASVGDRVTITCRASQSVSTSSYNYMHWYQQKPGKPPKLLIKYASNLESGVPSRFSGSGSGTDFTLTISSLQPEDFATYYCQHSWEIPLTFGQGTKVEIKR
modifications: conjugator-linker-payload on cysteine thiols after TCEP reduction; positions not given
- EC50 (nM) direct cellular killing, HL60 [1]: 1.6 nM
- EC50 (nM) direct cellular killing, U937 [1]: 0.2 nM

B3: ADC3-4 (antibody, human IgG1, kappa, V domains shown)
VH: EVQLVQSGAEVKKPGASVKVSCKASGYSFTDYYMHWVRQAPGQGLEWIGRINPYAGAAFYSQNFKDRVTLTVDTSTSTAYLELSSLRSEDTAVYYCAIERGADLEGYAMDYWGQGTLVTVSS
VL: DIQMTQSPSSLSASVGDRVTITCRASQSVSTSSYNYMHWYQQKPGKPPKLLIKYASNLESGVPSRFSGSGSGTDFTLTISSLQPEDFATYYCQHSWEIPLTFGQGTKVEIKR
modifications: conjugator-linker-payload on cysteine thiols after TCEP reduction; positions not given
- EC50 (nM) direct cellular killing, HL60 [1]: 1.1 nM
- EC50 (nM) direct cellular killing, U937 [1]: 0.2 nM
- Emax (%) direct cellular killing, HL60 [1]: 98%

B4: ADC3-5 (antibody, human IgG1, kappa, V domains shown)
VH: EVQLVQSGAEVKKPGASVKVSCKASGYSFTDYYMHWVRQAPGQGLEWIGRINPYAGAAFYSQNFKDRVTLTVDTSTSTAYLELSSLRSEDTAVYYCAIERGADLEGYAMDYWGQGTLVTVSS
VL: DIQMTQSPSSLSASVGDRVTITCRASQSVSTSSYNYMHWYQQKPGKPPKLLIKYASNLESGVPSRFSGSGSGTDFTLTISSLQPEDFATYYCQHSWEIPLTFGQGTKVEIKR
modifications: conjugator-linker-payload on cysteine thiols after TCEP reduction; positions not given
- EC50 (nM) direct cellular killing, U937 [2]: 1 nM
- Emax (%) direct cellular killing, HL60 [2]: 79.8%

B5: ADC3-6 (antibody, human IgG1, kappa, V domains shown)
VH: EVQLVQSGAEVKKPGASVKVSCKASGYSFTDYYMHWVRQAPGQGLEWIGRINPYAGAAFYSQNFKDRVTLTVDTSTSTAYLELSSLRSEDTAVYYCAIERGADLEGYAMDYWGQGTLVTVSS
VL: DIQMTQSPSSLSASVGDRVTITCRASQSVSTSSYNYMHWYQQKPGKPPKLLIKYASNLESGVPSRFSGSGSGTDFTLTISSLQPEDFATYYCQHSWEIPLTFGQGTKVEIKR
modifications: conjugator-linker-payload on cysteine thiols after TCEP reduction; positions not given
- EC50 (nM) direct cellular killing, HL60 [2]: 0.4 nM
- EC50 (nM) direct cellular killing, U937 [2]: 0.6 nM

B6: ADC3-7 (antibody, human IgG1, kappa, V domains shown)
VH: EVQLVQSGAEVKKPGASVKVSCKASGYSFTDYYMHWVRQAPGQGLEWIGRINPYAGAAFYSQNFKDRVTLTVDTSTSTAYLELSSLRSEDTAVYYCAIERGADLEGYAMDYWGQGTLVTVSS
VL: DIQMTQSPSSLSASVGDRVTITCRASQSVSTSSYNYMHWYQQKPGKPPKLLIKYASNLESGVPSRFSGSGSGTDFTLTISSLQPEDFATYYCQHSWEIPLTFGQGTKVEIKR
modifications: conjugator-linker-payload on cysteine thiols after TCEP reduction; positions not given
- EC50 (nM) direct cellular killing, HL60 [3]: 0.4 nM
- EC50 (nM) direct cellular killing, U937 [3]: 0.3 nM

B7: ADC3-8 (antibody, human IgG1, kappa, V domains shown)
VH: EVQLVQSGAEVKKPGASVKVSCKASGYSFTDYYMHWVRQAPGQGLEWIGRINPYAGAAFYSQNFKDRVTLTVDTSTSTAYLELSSLRSEDTAVYYCAIERGADLEGYAMDYWGQGTLVTVSS
VL: DIQMTQSPSSLSASVGDRVTITCRASQSVSTSSYNYMHWYQQKPGKPPKLLIKYASNLESGVPSRFSGSGSGTDFTLTISSLQPEDFATYYCQHSWEIPLTFGQGTKVEIKR
modifications: conjugator-linker-payload on cysteine thiols after TCEP reduction; positions not given
- EC50 (nM) direct cellular killing, HL60 [3]: 0.1 nM
- EC50 (nM) direct cellular killing, U937 [3]: 0.2 nM

B8: ADC3-9 (antibody, human IgG1, kappa, V domains shown)
VH: EVQLVQSGAEVKKPGASVKVSCKASGYSFTDYYMHWVRQAPGQGLEWIGRINPYAGAAFYSQNFKDRVTLTVDTSTSTAYLELSSLRSEDTAVYYCAIERGADLEGYAMDYWGQGTLVTVSS
VL: DIQMTQSPSSLSASVGDRVTITCRASQSVSTSSYNYMHWYQQKPGKPPKLLIKYASNLESGVPSRFSGSGSGTDFTLTISSLQPEDFATYYCQHSWEIPLTFGQGTKVEIKR
modifications: conjugator-linker-payload on cysteine thiols after TCEP reduction; positions not given
- EC50 (nM) direct cellular killing, HL60 [3]: 1.7 nM
- EC50 (nM) direct cellular killing, U937 [3]: 0.6 nM

B9: ADC3-10 (antibody, human IgG1, kappa, V domains shown)
VH: EVQLVQSGAEVKKPGASVKVSCKASGYSFTDYYMHWVRQAPGQGLEWIGRINPYAGAAFYSQNFKDRVTLTVDTSTSTAYLELSSLRSEDTAVYYCAIERGADLEGYAMDYWGQGTLVTVSS
VL: DIQMTQSPSSLSASVGDRVTITCRASQSVSTSSYNYMHWYQQKPGKPPKLLIKYASNLESGVPSRFSGSGSGTDFTLTISSLQPEDFATYYCQHSWEIPLTFGQGTKVEIKR
modifications: conjugator-linker-payload on cysteine thiols after TCEP reduction; positions not given
- EC50 (nM) direct cellular killing, HL60 [4]: 1.2 nM
- EC50 (nM) direct cellular killing, U937 [4]: 0.7 nM
- Emax (%) direct cellular killing, HL60 [4]: 82.2%

B10: ADC3-11 (antibody, human IgG1, kappa, V domains shown)
VH: EVQLVQSGAEVKKPGASVKVSCKASGYSFTDYYMHWVRQAPGQGLEWIGRINPYAGAAFYSQNFKDRVTLTVDTSTSTAYLELSSLRSEDTAVYYCAIERGADLEGYAMDYWGQGTLVTVSS
VL: DIQMTQSPSSLSASVGDRVTITCRASQSVSTSSYNYMHWYQQKPGKPPKLLIKYASNLESGVPSRFSGSGSGTDFTLTISSLQPEDFATYYCQHSWEIPLTFGQGTKVEIKR
modifications: conjugator-linker-payload on cysteine thiols after TCEP reduction; positions not given
- EC50 (nM) direct cellular killing, HL60 [4]: 4.6 nM
- EC50 (nM) direct cellular killing, U937 [4]: 12.8 nM
- Emax (%) direct cellular killing, HL60 [4]: 43.9%
- Emax (%) direct cellular killing, U937 [4]: 78.7%

B11: ADC3-1 (antibody, human IgG1, kappa, V domains shown)
VH: EVQLVQSGAEVKKPGASVKVSCKASGYSFTDYYMHWVRQAPGQGLEWIGRINPYAGAAFYSQNFKDRVTLTVDTSTSTAYLELSSLRSEDTAVYYCAIERGADLEGYAMDYWGQGTLVTVSS
VL: DIQMTQSPSSLSASVGDRVTITCRASQSVSTSSYNYMHWYQQKPGKPPKLLIKYASNLESGVPSRFSGSGSGTDFTLTISSLQPEDFATYYCQHSWEIPLTFGQGTKVEIKR
modifications: conjugator-linker-payload on cysteine thiols after TCEP reduction; positions not given
- EC50 (nM) direct cellular killing, HL60 [1]: 5.7 nM
- EC50 (nM) direct cellular killing, U937 [1]: 0.5 nM

B12: ADC3-12 (antibody, human IgG1, kappa, V domains shown)
VH: EVQLVQSGAEVKKPGASVKVSCKASGYSFTDYYMHWVRQAPGQGLEWIGRINPYAGAAFYSQNFKDRVTLTVDTSTSTAYLELSSLRSEDTAVYYCAIERGADLEGYAMDYWGQGTLVTVSS
VL: DIQMTQSPSSLSASVGDRVTITCRASQSVSTSSYNYMHWYQQKPGKPPKLLIKYASNLESGVPSRFSGSGSGTDFTLTISSLQPEDFATYYCQHSWEIPLTFGQGTKVEIKR
modifications: conjugator-linker-payload on cysteine thiols after TCEP reduction; positions not given
- EC50 (nM) direct cellular killing, HL60 [4]: 8 nM
- EC50 (nM) direct cellular killing, U937 [4]: 0.7 nM
- Emax (%) direct cellular killing, HL60 [4]: 81%

B13: ADC4-1 (antibody, human IgG1, kappa, V domains shown)
VH: QVQLVQSGAEVKKPGSSVKVSCKASGYTFTNYVMHWVRQAPGQGLEWMGYINPYNDDVKYNEKFKGRVTITADESTSTAYMELSSLRSEDTAVYYCARWGYYGSPLYYFDYWGQGTLVTVSS
VL: EIVLTQSPATLSLSPGERATLSCRASSRLIYMHWYQQKPGQAPRPLIYATSNLASGIPARFSGSGSGTDFTLTISSLEPEDFAVYYCQQWNSNPPTFGQGTKVEIKR
modifications: conjugator-linker-payload on cysteine thiols after TCEP reduction; positions not given
- EC50 (nM) direct cellular killing, NCI-H358 [5]: 0.1 nM
- EC50 (nM) direct cellular killing, NCI-H1048 [5]: 0.6 nM
- Emax (%) direct cellular killing, NCI-H358 [5]: 82.8%
- Emax (%) direct cellular killing, NCI-H1048 [5]: 83.6%

B14: ADC4-2 (antibody, human IgG1, kappa, V domains shown)
VH: QVQLVQSGAEVKKPGSSVKVSCKASGYTFTNYVMHWVRQAPGQGLEWMGYINPYNDDVKYNEKFKGRVTITADESTSTAYMELSSLRSEDTAVYYCARWGYYGSPLYYFDYWGQGTLVTVSS
VL: EIVLTQSPATLSLSPGERATLSCRASSRLIYMHWYQQKPGQAPRPLIYATSNLASGIPARFSGSGSGTDFTLTISSLEPEDFAVYYCQQWNSNPPTFGQGTKVEIKR
modifications: conjugator-linker-payload on cysteine thiols after TCEP reduction; positions not given
- EC50 (nM) direct cellular killing, NCI-H358 [5]: 0.1 nM
- Emax (%) direct cellular killing, NCI-H358 [5]: 81%
- Emax (%) direct cellular killing, NCI-H1048 [5]: 62%

B15: ADC4-3 (antibody, human IgG1, kappa, V domains shown)
VH: QVQLVQSGAEVKKPGSSVKVSCKASGYTFTNYVMHWVRQAPGQGLEWMGYINPYNDDVKYNEKFKGRVTITADESTSTAYMELSSLRSEDTAVYYCARWGYYGSPLYYFDYWGQGTLVTVSS
VL: EIVLTQSPATLSLSPGERATLSCRASSRLIYMHWYQQKPGQAPRPLIYATSNLASGIPARFSGSGSGTDFTLTISSLEPEDFAVYYCQQWNSNPPTFGQGTKVEIKR
modifications: conjugator-linker-payload on cysteine thiols after TCEP reduction; positions not given
- EC50 (nM) direct cellular killing, NCI-H358 [5]: 0.1 nM
- EC50 (nM) direct cellular killing, NCI-H1048 [5]: 1.6 nM
- Emax (%) direct cellular killing, NCI-H358 [5]: 79.9%
- Emax (%) direct cellular killing, NCI-H1048 [5]: 80%
